Reference: IntAct's records for PubMed 22653727

Columns and labels:
[1] = target: clock_mouse Clock (UniProt O08785)
[2] = target: clock_mouse Clock (UniProt O08785); remark: listed apart in the source
[3] = target: clock_mouse Clock (UniProt O08785); remark: listed apart in the source

Chain of clock_mouse Clock (O08785 whole entry): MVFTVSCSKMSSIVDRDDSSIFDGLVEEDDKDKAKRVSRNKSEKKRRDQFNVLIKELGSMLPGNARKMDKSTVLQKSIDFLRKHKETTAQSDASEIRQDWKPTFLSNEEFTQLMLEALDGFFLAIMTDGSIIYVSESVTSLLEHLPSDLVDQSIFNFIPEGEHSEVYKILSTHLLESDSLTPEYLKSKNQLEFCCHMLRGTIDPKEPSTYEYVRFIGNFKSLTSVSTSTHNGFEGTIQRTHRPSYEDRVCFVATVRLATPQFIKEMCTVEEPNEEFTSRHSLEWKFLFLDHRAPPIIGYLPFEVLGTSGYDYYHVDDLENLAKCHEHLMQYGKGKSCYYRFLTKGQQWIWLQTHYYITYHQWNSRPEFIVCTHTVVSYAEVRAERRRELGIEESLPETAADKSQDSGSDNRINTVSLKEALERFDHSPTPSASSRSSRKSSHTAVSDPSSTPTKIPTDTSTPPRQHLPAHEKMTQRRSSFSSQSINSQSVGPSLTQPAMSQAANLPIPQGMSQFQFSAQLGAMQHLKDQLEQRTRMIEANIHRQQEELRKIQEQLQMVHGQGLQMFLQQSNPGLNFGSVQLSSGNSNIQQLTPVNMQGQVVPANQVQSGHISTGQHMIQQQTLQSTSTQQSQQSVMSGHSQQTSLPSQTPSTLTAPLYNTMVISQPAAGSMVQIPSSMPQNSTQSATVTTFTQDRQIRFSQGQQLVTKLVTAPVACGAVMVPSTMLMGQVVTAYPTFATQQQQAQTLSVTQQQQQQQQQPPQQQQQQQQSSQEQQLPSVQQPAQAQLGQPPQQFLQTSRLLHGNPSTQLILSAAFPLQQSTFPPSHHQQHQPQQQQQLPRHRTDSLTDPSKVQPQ
Chain of Basic helix-loop-helix ARNT-like protein 1 (Mus musculus), Q9WTL8-4 F423R (Q9WTL8 other isoform, or with tags, fused parts or gaps F423R): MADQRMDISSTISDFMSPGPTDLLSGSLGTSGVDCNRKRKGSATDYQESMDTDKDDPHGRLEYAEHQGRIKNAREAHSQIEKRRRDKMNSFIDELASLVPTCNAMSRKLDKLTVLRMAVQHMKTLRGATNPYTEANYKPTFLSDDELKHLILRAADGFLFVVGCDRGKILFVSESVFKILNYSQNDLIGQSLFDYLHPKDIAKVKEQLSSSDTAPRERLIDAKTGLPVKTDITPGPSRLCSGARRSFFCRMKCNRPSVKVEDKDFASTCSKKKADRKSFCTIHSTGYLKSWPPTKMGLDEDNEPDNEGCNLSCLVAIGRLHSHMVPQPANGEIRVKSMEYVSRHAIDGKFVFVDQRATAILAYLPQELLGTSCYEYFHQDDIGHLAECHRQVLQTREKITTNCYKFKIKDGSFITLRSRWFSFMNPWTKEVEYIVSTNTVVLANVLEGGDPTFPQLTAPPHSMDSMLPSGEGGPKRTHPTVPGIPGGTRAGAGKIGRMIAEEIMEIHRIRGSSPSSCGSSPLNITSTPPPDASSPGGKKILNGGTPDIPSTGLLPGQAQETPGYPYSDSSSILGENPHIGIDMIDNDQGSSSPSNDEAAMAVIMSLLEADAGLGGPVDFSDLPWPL
Chain of Basic helix-loop-helix ARNT-like protein 1 (Mus musculus), Q9WTL8-4 F423R;V435R (Q9WTL8 other isoform, or with tags, fused parts or gaps F423R;V435R): as the sequence (Q9WTL8 other isoform, or with tags, fused parts or gaps F423R) above
Chain of Basic helix-loop-helix ARNT-like protein 1 (Mus musculus), Q9WTL8-4 I317D (Q9WTL8 other isoform, or with tags, fused parts or gaps I317D): as the sequence (Q9WTL8 other isoform, or with tags, fused parts or gaps F423R) above
Chain of Basic helix-loop-helix ARNT-like protein 1 (Mus musculus), Q9WTL8-4 L95E;L150E;W427A (Q9WTL8 other isoform, or with tags, fused parts or gaps L95E;L150E;W427A): as the sequence (Q9WTL8 other isoform, or with tags, fused parts or gaps F423R) above
Chain of Basic helix-loop-helix ARNT-like protein 1 (Mus musculus), Q9WTL8-4 L95E (Q9WTL8 other isoform, or with tags, fused parts or gaps L95E): as the sequence (Q9WTL8 other isoform, or with tags, fused parts or gaps F423R) above
Chain of Basic helix-loop-helix ARNT-like protein 1 (Mus musculus), Q9WTL8-4 L150E (Q9WTL8 other isoform, or with tags, fused parts or gaps L150E): as the sequence (Q9WTL8 other isoform, or with tags, fused parts or gaps F423R) above
Chain of Basic helix-loop-helix ARNT-like protein 1 (Mus musculus), Q9WTL8-4 V435R (Q9WTL8 other isoform, or with tags, fused parts or gaps V435R): as the sequence (Q9WTL8 other isoform, or with tags, fused parts or gaps F423R) above
Chain of Basic helix-loop-helix ARNT-like protein 1 (Mus musculus), Q9WTL8-4 W427A (Q9WTL8 other isoform, or with tags, fused parts or gaps W427A): as the sequence (Q9WTL8 other isoform, or with tags, fused parts or gaps F423R) above
Chain of Basic helix-loop-helix ARNT-like protein 1 (Mus musculus), Q9WTL8-4 L115E (Q9WTL8 other isoform, or with tags, fused parts or gaps L115E): as the sequence (Q9WTL8 other isoform, or with tags, fused parts or gaps F423R) above

Row | Substance | effect of a mutation on the interaction [1] | effect of a mutation on the interaction [2] | effect of a mutation on the interaction [3]
1 | Basic helix-loop-helix ARNT-like protein 1 (Mus musculus), Q9WTL8-4 L95E | with no effect | disrupting interaction strength | –
2 | Basic helix-loop-helix ARNT-like protein 1 (Mus musculus), Q9WTL8-4 W427A | with no effect | decreasing interaction strength | –
3 | Basic helix-loop-helix ARNT-like protein 1 (Mus musculus), Q9WTL8-4 F423R;V435R | disrupting interaction strength | decreasing interaction strength | –
4 | Basic helix-loop-helix ARNT-like protein 1 (Mus musculus), Q9WTL8-4 L115E | – | disrupting interaction strength | –
5 | Basic helix-loop-helix ARNT-like protein 1 (Mus musculus), Q9WTL8-4 L95E;L150E;W427A | disrupting interaction strength | disrupting interaction strength | –
6 | Basic helix-loop-helix ARNT-like protein 1 (Mus musculus), Q9WTL8-4 V435R | disrupting interaction strength | with no effect | –
7 | Basic helix-loop-helix ARNT-like protein 1 (Mus musculus), Q9WTL8-4 L150E | – | with no effect | decreasing interaction strength
8 | Basic helix-loop-helix ARNT-like protein 1 (Mus musculus), Q9WTL8-4 I317D | decreasing interaction strength | disrupting interaction strength | –
9 | Basic helix-loop-helix ARNT-like protein 1 (Mus musculus), Q9WTL8-4 F423R | decreasing interaction strength | with no effect | –
